Results: article PMC9482650, “Quantitative fragmentomics allow affinity mapping of interactomes” (Nature Communications, 2022)

T1: APBA1_1, Q02410
T1 sequence (Q02410 651-752, limits assumed, looked up): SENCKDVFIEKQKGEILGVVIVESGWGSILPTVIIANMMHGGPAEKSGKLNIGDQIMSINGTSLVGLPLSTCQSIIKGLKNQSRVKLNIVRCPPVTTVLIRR

T2: APBA2_2, Q99767
T2 sequence (Q99767 654-744, limits assumed, looked up): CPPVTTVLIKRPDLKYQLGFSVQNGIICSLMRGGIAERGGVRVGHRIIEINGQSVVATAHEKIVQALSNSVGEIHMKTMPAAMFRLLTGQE

T3: ARHGEF11, O15085
T3 sequence (O15085 42-136, limits assumed, looked up): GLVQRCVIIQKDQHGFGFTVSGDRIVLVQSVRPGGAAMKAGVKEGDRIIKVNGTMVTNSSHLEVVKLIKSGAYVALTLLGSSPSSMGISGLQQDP

T4: CARD11, Q9BXL7
T4 sequence (Q9BXL7 662-765, limits assumed, looked up): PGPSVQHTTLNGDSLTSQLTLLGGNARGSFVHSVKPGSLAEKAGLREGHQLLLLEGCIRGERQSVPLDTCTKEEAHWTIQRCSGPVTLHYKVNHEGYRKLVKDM

T5: DLG3_1, Q92796
T5 sequence (Q92796 125-227, limits assumed, looked up): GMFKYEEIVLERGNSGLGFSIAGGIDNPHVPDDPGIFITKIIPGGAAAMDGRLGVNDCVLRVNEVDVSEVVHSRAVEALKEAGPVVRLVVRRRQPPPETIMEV

T6: GRIP1_2, Q9Y3R0
T6 sequence (Q9Y3R0 145-248, limits assumed, looked up): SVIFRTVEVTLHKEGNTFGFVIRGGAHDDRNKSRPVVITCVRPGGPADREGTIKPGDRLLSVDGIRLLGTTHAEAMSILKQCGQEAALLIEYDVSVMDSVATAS

T7: LNX2_2, Q8N448
T7 sequence (Q8N448 334-432, limits assumed, looked up): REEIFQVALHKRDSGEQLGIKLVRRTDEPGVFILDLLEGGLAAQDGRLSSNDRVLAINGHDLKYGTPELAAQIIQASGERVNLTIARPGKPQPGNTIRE

T8: MPDZ_5, O75970
T8 sequence (O75970 695-796, limits assumed, looked up): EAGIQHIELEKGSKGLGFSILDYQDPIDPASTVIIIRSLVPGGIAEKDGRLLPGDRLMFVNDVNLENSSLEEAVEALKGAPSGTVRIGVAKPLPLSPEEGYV

T9: MPP2, Q14168
T9 sequence (Q14168 180-250, limits assumed, looked up): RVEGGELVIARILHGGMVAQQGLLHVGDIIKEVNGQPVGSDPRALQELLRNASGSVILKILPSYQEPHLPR

T10: RADIL, Q96JH8
T10 sequence (Q96JH8 971-1071, limits assumed, looked up): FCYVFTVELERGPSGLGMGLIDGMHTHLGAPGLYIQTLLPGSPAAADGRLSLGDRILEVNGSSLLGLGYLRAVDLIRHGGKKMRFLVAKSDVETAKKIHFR

T11: SNTB1, Q13884
T11 sequence (Q13884 107-205, limits assumed, looked up): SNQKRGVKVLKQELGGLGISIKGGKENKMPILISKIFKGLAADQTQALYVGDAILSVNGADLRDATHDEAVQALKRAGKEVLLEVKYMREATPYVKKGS

T12: TX1BP3, O14907
T12 sequence (O14907 10-122, limits assumed, looked up): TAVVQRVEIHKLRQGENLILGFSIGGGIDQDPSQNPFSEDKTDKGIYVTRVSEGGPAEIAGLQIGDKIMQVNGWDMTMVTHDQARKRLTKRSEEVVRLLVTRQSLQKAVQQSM


How the values were obtained:
Test in all cases: holdup assay
Parameters in all cases: key: below the threshold = too weak to quantify, mostly under pKd 3.1 to 4
Conditions in all cases: plain residues with an end cap or a label only (N-terminal biotin on a linker: ado-ado)
AHNAK1, Q09666 = biological target: AHNAK1, Q09666
AHNAK1, Q09666, sequence (Q09666 4-100): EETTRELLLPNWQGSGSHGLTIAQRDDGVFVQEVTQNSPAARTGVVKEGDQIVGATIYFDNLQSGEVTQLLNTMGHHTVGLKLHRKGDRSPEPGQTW

APBA1_1, Q02410 = biological target: T1, APBA1_1, Q02410
APBA2_2, Q99767 = biological target: T2, APBA2_2, Q99767
ARHGEF11, O15085 = biological target: T3, ARHGEF11, O15085
CARD11, Q9BXL7 = biological target: T4, CARD11, Q9BXL7
DLG1_1, Q12959 = biological target: DLG1_1, Q12959
DLG1_3, Q12959 = biological target: DLG1_3, Q12959
DLG2_3, Q15700 = biological target: DLG2_3, Q15700
DLG3_1, Q92796 = biological target: T5, DLG3_1, Q92796
DLG4_2, P78352 = biological target: DLG4_2, P78352
DLG4_2, P78352, sequence (P78352 155-259): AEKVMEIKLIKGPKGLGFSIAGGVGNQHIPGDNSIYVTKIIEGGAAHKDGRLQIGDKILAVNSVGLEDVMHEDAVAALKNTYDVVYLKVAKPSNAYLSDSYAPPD

GRIP1_2, Q9Y3R0 = biological target: T6, GRIP1_2, Q9Y3R0
Inadl_10, Q8NI35 = biological target: Inadl_10, Q8NI35
Inadl_10, Q8NI35, sequence (Q8NI35 1673-1763): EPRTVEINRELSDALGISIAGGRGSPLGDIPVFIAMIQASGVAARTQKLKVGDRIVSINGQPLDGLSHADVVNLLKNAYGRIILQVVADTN

LAP2, Q96RT1 = biological target: LAP2, Q96RT1
LAP2, Q96RT1, sequence (Q96RT1 other isoform, or with tags, fused parts or gaps): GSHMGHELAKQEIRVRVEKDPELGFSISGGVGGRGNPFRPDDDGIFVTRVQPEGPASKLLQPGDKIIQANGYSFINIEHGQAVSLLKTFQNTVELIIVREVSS

LNX1_2, Q8TBB1 = biological target: LNX1_2, Q8TBB1
LNX1_2, Q8TBB1, sequence (Q8TBB1 371-470): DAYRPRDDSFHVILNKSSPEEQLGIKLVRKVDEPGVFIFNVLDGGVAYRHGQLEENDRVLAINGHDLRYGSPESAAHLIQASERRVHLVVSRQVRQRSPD

LNX2_2, Q8N448 = biological target: T7, LNX2_2, Q8N448
MAGI2_4, Q86UL8 = biological target: MAGI2_4, Q86UL8
MAGI2_4, Q86UL8, sequence (Q86UL8 772-865): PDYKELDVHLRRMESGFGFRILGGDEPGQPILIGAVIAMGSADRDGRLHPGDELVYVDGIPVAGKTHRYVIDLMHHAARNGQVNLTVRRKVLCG

MAGI3_2, Q5TCQ9 = biological target: MAGI3_2, Q5TCQ9
MAGI3_2, Q5TCQ9, sequence (Q5TCQ9 398-503): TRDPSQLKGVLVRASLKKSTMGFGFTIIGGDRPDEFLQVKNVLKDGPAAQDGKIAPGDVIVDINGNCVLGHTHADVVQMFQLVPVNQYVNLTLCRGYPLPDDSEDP

MPDZ_5, O75970 = biological target: T8, MPDZ_5, O75970
MPP2, Q14168 = biological target: T9, MPP2, Q14168
PDZRN4_1, Q6ZMN7 = biological target: PDZRN4_1, Q6ZMN7
PDZRN4_1, Q6ZMN7, sequence (Q6ZMN7 213-318): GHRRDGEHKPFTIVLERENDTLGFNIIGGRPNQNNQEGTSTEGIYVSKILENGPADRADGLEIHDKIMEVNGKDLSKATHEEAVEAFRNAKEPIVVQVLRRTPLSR

PICK1, Q9NRD5 = biological target: PICK1, Q9NRD5
PICK1, Q9NRD5, sequence (Q9NRD5 17-115): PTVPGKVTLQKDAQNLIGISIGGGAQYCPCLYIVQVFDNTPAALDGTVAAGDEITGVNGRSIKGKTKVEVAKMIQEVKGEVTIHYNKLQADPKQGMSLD

RADIL, Q96JH8 = biological target: T10, RADIL, Q96JH8
SNTB1, Q13884 = biological target: T11, SNTB1, Q13884
TJP1_2, Q07157 = biological target: TJP1_2, Q07157
TJP1_2, Q07157, sequence (Q07157 181-274): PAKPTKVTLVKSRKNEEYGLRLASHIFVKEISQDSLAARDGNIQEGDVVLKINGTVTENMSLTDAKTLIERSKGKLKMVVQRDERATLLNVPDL

TJP2_1, Q9UDY2 = biological target: TJP2_1, Q9UDY2
TJP2_1, Q9UDY2, sequence (Q9UDY2 24-128): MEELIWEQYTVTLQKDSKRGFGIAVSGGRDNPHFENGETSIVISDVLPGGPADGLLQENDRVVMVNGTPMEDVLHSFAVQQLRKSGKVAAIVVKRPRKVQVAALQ

TX1BP3, O14907 = biological target: T12, TX1BP3, O14907

pKd (AHNAK1, Q09666) | pKd (APBA1_1, Q02410) | pKd (APBA2_2, Q99767) | pKd (ARHGEF11, O15085) | pKd (CARD11, Q9BXL7) | pKd (DLG1_1, Q12959) | pKd (DLG1_3, Q12959) | pKd (DLG2_3, Q15700) | pKd (DLG3_1, Q92796) | pKd (DLG4_2, P78352) | pKd (GRIP1_2, Q9Y3R0) | pKd (Inadl_10, Q8NI35) | pKd (LAP2, Q96RT1) | pKd (LNX1_2, Q8TBB1) | pKd (LNX2_2, Q8N448) | pKd (MAGI2_4, Q86UL8) | pKd (MAGI3_2, Q5TCQ9) | pKd (MPDZ_5, O75970) | pKd (MPP2, Q14168) | pKd (PDZRN4_1, Q6ZMN7) | Binder | other results
below the threshold | below the threshold | below the threshold | 4.21 | below the threshold | below the threshold | 3.6 | 3.8 | below the threshold | 3.63 | below the threshold | below the threshold | below the threshold | below the threshold | below the threshold | below the threshold | below the threshold | below the threshold | below the threshold | below the threshold | SAAKVLTSMC [GHRHR, Q02643] | pKd (PICK1, Q9NRD5): below the threshold; pKd (RADIL, Q96JH8): 3.71; pKd (SNTB1, Q13884): 3.53; pKd (TJP1_2, Q07157): below the threshold; pKd (TJP2_1, Q9UDY2): 3.6; pKd (TX1BP3, O14907): 3.54
below the threshold | below the threshold | below the threshold | below the threshold | below the threshold | below the threshold | below the threshold | 3.88 | below the threshold | 4.11 | below the threshold | below the threshold | below the threshold | below the threshold | below the threshold | 3.52 | below the threshold | below the threshold | below the threshold | below the threshold | TASPAKETSF [SLC2A7, Q6PXP3] | pKd (PICK1, Q9NRD5): below the threshold; pKd (RADIL, Q96JH8): below the threshold; pKd (SNTB1, Q13884): 3.53; pKd (TJP1_2, Q07157): below the threshold; pKd (TJP2_1, Q9UDY2): below the threshold; pKd (TX1BP3, O14907): 3.79

Continued, binder first:

Binder | pKd (AHNAK1, Q09666) | pKd (APBA1_1, Q02410) | pKd (APBA2_2, Q99767) | pKd (ARHGEF11, O15085) | pKd (CARD11, Q9BXL7) | pKd (DLG1_1, Q12959) | pKd (DLG1_3, Q12959) | pKd (DLG2_3, Q15700) | pKd (DLG3_1, Q92796) | pKd (DLG4_2, P78352) | pKd (GRIP1_2, Q9Y3R0) | pKd (Inadl_10, Q8NI35) | pKd (LAP2, Q96RT1) | pKd (LNX1_2, Q8TBB1) | pKd (LNX2_2, Q8N448) | pKd (MAGI2_4, Q86UL8) | pKd (MAGI3_2, Q5TCQ9) | pKd (MPDZ_5, O75970) | pKd (MPP2, Q14168) | pKd (PDZRN4_1, Q6ZMN7) | other results
QSPANIYYKV [EFNB1, P52799] | below the threshold | below the threshold | below the threshold | below the threshold | below the threshold | below the threshold | below the threshold | below the threshold | below the threshold | below the threshold | below the threshold | below the threshold | below the threshold | 3.61 | 4.25 | below the threshold | below the threshold | below the threshold | below the threshold | below the threshold | pKd (PICK1, Q9NRD5): below the threshold; pKd (RADIL, Q96JH8): 4.05; pKd (SNTB1, Q13884): below the threshold; pKd (TJP1_2, Q07157): below the threshold; pKd (TJP2_1, Q9UDY2): below the threshold; pKd (TX1BP3, O14907): below the threshold
MLSKQSESAI [FLVCR1, Q9Y5Y0] | below the threshold | below the threshold | below the threshold | below the threshold | below the threshold | below the threshold | 3.77 | below the threshold | below the threshold | 3.84 | below the threshold | below the threshold | below the threshold | below the threshold | below the threshold | 3.54 | 4.45 | below the threshold | below the threshold | 3.62 | pKd (PICK1, Q9NRD5): below the threshold; pKd (RADIL, Q96JH8): below the threshold; pKd (SNTB1, Q13884): 3.68; pKd (TJP1_2, Q07157): below the threshold; pKd (TJP2_1, Q9UDY2): below the threshold; pKd (TX1BP3, O14907): 4.1
QSARLWETSI [ADAM22, Q9P0K1] | below the threshold | below the threshold | below the threshold | 3.79 | below the threshold | 4.21 | 4.66 | 4.47 | below the threshold | 4.18 | below the threshold | 3.8 | 3.96 | below the threshold | below the threshold | below the threshold | 4.22 | below the threshold | below the threshold | 5 | pKd (PICK1, Q9NRD5): 3.91; pKd (RADIL, Q96JH8): 3.71; pKd (SNTB1, Q13884): 4.69; pKd (TJP1_2, Q07157): below the threshold; pKd (TJP2_1, Q9UDY2): below the threshold; pKd (TX1BP3, O14907): 4.8
